Measurements published in US20220202899A1, “COMPOSITION FOR PREVENTION OR TREATMENT OF HAIR LOSS INCLUDING HAPLN1” (HAPLNSCIENCE INC., priority 2019, published 2022).

Columns and labels:
[1] = test system: HAS2; experiment: HAS2 protein in human hair germinal matrix cells deficient in endogenous HA (4-MU); assay type: cell-based; conditions: 4-MU-treated cells; HAPLN1 25 ng/mL; TGF-β2 2 ng/mL
Procedure: 4-MU (4-methylumbelliferone) is an inhibitor of HA-producing hyaluronan synthase 2 (HAS2), which produces HA. In order to confirm the effect of HA produced in cells, HA production in cells was inhibited using 4-MU.
The human hair germinal matrix cells, in which the endogenous HA was inhibited by treating 4-MU, were dispensed into a poly-D-lysine 6-well plate at a concentration of 5.0×10^4 per well and cultured for 24 hours. After 24 hours, the medium was removed and replaced with a new serum-free medium. HAPLN1 was treated with 25 ng/mL, and after 1 hour, TGF-β2 (2 ng/mL) was treated. After 23 hours, cells were collected, a lysis buffer (25 mM Tris-HCl, 1 mM EDTA, 0.1% Triton-X100, phosphatase inhibitor, and protease inhibitor) was added, and all the cells were broken through sonication. HAS2 and TβRII in the sample were measured using Western blotting. The optical density of each of HAS2 and TβRII was compared to that of GAPDH using a densitometer.

[2] = test system: p-Smad2; experiment: p-Smad2 in human hair germinal matrix cells stimulated with TGF-β2 (Western blotting); assay type: cell-based; conditions: HAPLN1 25 ng/mL and/or HA 25 μg/mL; TGF-β2 2 ng/mL, 1 hour
Procedure: Human hair germinal matrix cells were dispensed into a poly-D-lysine 6-well plate at a concentration of 5.0×10^4 per well and cultured for 24 hours. After 24 hours, the medium was removed and replaced with a new serum-free medium. HAPLN1 was treated with 25 ng/mL and HA with 25 μg/mL, incubated for 23 hours, and then stimulated with TGF-β2 (2 ng/mL) for 1 hour. After collecting cells, a lysis buffer (25 mM Tris-HCl, 1 mM EDTA, 0.1% Triton-X100, phosphatase inhibitor, and protease inhibitor) was added, and all the cells were broken through sonication. p-ERK1/2, p-Smad2, p-MEK1/2, and p-c-Raf in the sample were measured using Western blotting. Optical densities of p-ERK1/2, p-Smad2, p-MEK1/2, and p-c-Raf were compared to those of ERK1/2, Smad2/3, MEK1, and c-Raf using a densitometer. Here, ERK1/2, Smad2/3, MEK1, and c-Raf were used as loading controls.

B1: hyaluronan and proteoglycan link protein 1 (protein, UniProt P10915 16-354, looked up)
Hyaluronan and proteoglycan …: DHLSDNYTLDHDRAIHIQAENGPHLLVEAEQAKVFSHRGGNVTLPCKFYRDPTAFGSGIHKIRIKWTKLTSDYLKEVDVFVSMGYHKKTYGGYQGRVFLKGGSDSDASLVITDLTLEDYGRYKCEVIEGLEDDTVVVALDLQGVVFPYFPRLGRYNLNFHEAQQACLDQDAVIASFDQLYDAWRGGLDWCNAGWLSDGSVQYPITKPREPCGGQNTVPGVRNYGFWDKDKSRYDVFCFTSNFNGRFYYLIHPTKLTYDEAVQACLNDGAQIAKVGQIFAAWKILGYDRCDAGWLADGSVRYPISRPRRRCSPTEAAVRFVGFPDKKHKLYGVYCFRAYN
notes: extracellular matrix protein found in cartilage; stabilizes aggregates of hyaluronic acid and proteoglycans
- HAS2 level [1]: recovered
- phosphorylation of Smad2 [2]: no change
